Article PMC6795507 (Science Advances, 2019)
Several values for one entry are separate records, joined by “and”; a condition that tells them apart may be missing. Equal values may be shown once.

What was measured:
[1] = biological target: head fiber gp14 of phage P68 (Staphylococcus aureus phage P68); experiment: cryo-EM structure
[2] = biological target: portal protein gp19 of phage P68 (Staphylococcus aureus phage P68); experiment: cryo-EM structure
[3] = biological target: lower collar protein gp18 of phage P68 (Staphylococcus aureus phage P68); experiment: cryo-EM structure
[4] = biological target: major capsid protein gp20 of phage P68 (Staphylococcus aureus phage P68); experiment: cryo-EM structure
[5] = biological target: tail fiber gp17 of phage P68 (in the virion) (Staphylococcus aureus phage P68); experiment: cryo-EM structure
crystal structure = biological target: the molecule itself; experiment: crystal structure

How did the stoichiometry N [1] turn out when “head fiber gp14 of phage P68 (natural protein)” was run?
The stoichiometry N was 3.

How did the stoichiometry N [2] turn out when “inner core protein gp22 of phage P68 (natural protein)” was run?
Its stoichiometry N is 6.

With “lower collar protein gp18 of phage P68 (natural protein)” as the molecule, how does the stoichiometry N [3] read?
Its stoichiometry N is 12.

How did the stoichiometry N [4] turn out when “major capsid protein gp20 of phage P68 (natural protein)” was run?
The stoichiometry N was 5 and 6.

With “portal protein gp19 of phage P68 (natural protein)” as the molecule, how does the stoichiometry N [2] read?
Its stoichiometry N is 12.

Which stoichiometry N [5] does the source give for “tail fiber gp17 of phage P68 (in the virion) (natural protein)” here?
Its stoichiometry N is 3.

B1: His-tagged tail fiber protein of phage P68 (recombinant) (natural protein)
chain: MAYNENDFKYFDDIRPFLDEIYKTRERYTPFYDDRADYNTNSKSYYDYISRLSKLIEVLARRIWDYDNELKKRFKNWDDLMKAFPEQAKDLFRGWLNDGTIDSIIHDEFKKYSAGLTSAFALFKVTEMKQMNDFKSEVKDLIKDIDRFVNGFELNELEPKFVMGFGGIRNAVNQSINIDKETNHMYSTQSDSQKPEGFWINKLTPSGDLISSMRIVQGGHGTTIGLERQSNGEMKIWLHHDGVAKLLQVAYKDNYVLDLEEAKGLTDYTPQSLLNKHTFTPLIDEANDKLILRFGDGTIQVRSRADVKNHIDNVEKEMTIDNSENNDNRWMQGIAVDGDDLYWLSGNSSVNSHVQIGKYSLTTGQKIYDYPFKLSYQDGINFPRDNFKEPEGICIYTNPKTKRKSLLLAMTNGGGGKRFHNLYGFFQLGEYEHFEALRARGSQNYKLTKDDGRALSIPDHIDDLNDLTQAGFYYIDGGTAEKLKNMPMNGSKRIIDAGCFINVYPTTQTLGTVQELTRFSTGRKMVKMVRGMTLDVFTLKWDYGLWTTIKTDAPYQEYLEASQYNNWIAYVTTAGEYYITGNQMELFRDAPEEIKKVGAWLRVSSGNAVGEVRQTLEANISEYKEFFSNVNAETKHREYGWVAKHQK
How did the “stoichiometry N” value (crystal structure) turn out when B1 was run?
The value was 3.
